According to patent publication US20220175839:

Assays:
Assay in all cases: cell_activity
TALEN 103062 (synthetic) = details: pair with 103061; K562, 400 ng
TALEN 103098 (synthetic) = details: pair with 103097; K562, 400 ng
TALEN 103084 (synthetic) = details: pair with 103083; K562, 400 ng
TALEN 103091 (synthetic) = details: pair with 103092; K562, 400 ng
TALEN 103104 (synthetic) = details: pair with 103103; K562, 400 ng
TALEN 103058 (synthetic) = details: pair with 103057; K562, 400 ng
TALEN 103074 (synthetic) = details: pair with 103073; K562, 400 ng
[1] = tested on: SBS55254 ZFN (TCRA) (synthetic); details: pair with 55248; T cells, TRAC 180, day 10
TALEN 103050 (synthetic) = details: pair with 103049; K562, 400 ng
TALEN 103064 (synthetic) = details: pair with 103063; K562, 400 ng
TALEN 103088 (synthetic) = details: pair with 103087; K562, 400 ng
TALEN 103095 (synthetic) = details: pair with 103096; K562, 400 ng
TALEN 103077 (synthetic) = details: pair with 103078; K562, 400 ng
TALEN 103093 (synthetic) = details: pair with 103094; K562, 400 ng
TALEN 103071 (synthetic) = details: pair with 103072; K562, 400 ng
TALEN 103083 (synthetic) = details: pair with 103084; K562, 400 ng
TALEN 103089 (synthetic) = details: pair with 103090; K562, 400 ng
TALEN 103079 (synthetic) = details: pair with 103080; K562, 400 ng
TALEN 103075 (synthetic) = details: pair with 103076; K562, 400 ng
TALEN 103070 (synthetic) = details: pair with 103069; K562, 400 ng
TALEN 103054 (synthetic) = details: pair with 103053; K562, 400 ng
TALEN 103101 (synthetic) = details: pair with 103102; K562, 400 ng
TALEN 103057 (synthetic) = details: pair with 103058; K562, 400 ng
TALEN 103087 (synthetic) = details: pair with 103088; K562, 400 ng
TALEN 103052 (synthetic) = details: pair with 103051; K562, 400 ng
TALEN 103069 (synthetic) = details: pair with 103070; K562, 400 ng
TALEN 103055 (synthetic) = details: pair with 103056; K562, 400 ng
TALEN 103065 (synthetic) = details: pair with 103066; K562, 400 ng
TALEN 103066 (synthetic) = details: pair with 103065; K562, 400 ng
TALEN 103067 (synthetic) = details: pair with 103068; K562, 400 ng
TALEN 103085 (synthetic) = details: pair with 103086; K562, 400 ng
TALEN 103086 (synthetic) = details: pair with 103085; K562, 400 ng
TALEN 103102 (synthetic) = details: pair with 103101; K562, 400 ng
TALEN 103097 (synthetic) = details: pair with 103098; K562, 400 ng
TALEN 103105 (synthetic) = details: pair with 103106; K562, 400 ng
TALEN 103076 (synthetic) = details: pair with 103075; K562, 400 ng
TALEN 103082 (synthetic) = details: pair with 103081; K562, 400 ng
TALEN 103073 (synthetic) = details: pair with 103074; K562, 400 ng
TALEN 103063 (synthetic) = details: pair with 103064; K562, 400 ng
TALEN 103090 (synthetic) = details: pair with 103089; K562, 400 ng
TALEN 103100 (synthetic) = details: pair with 103099; K562, 400 ng
TALEN 103099 (synthetic) = details: pair with 103100; K562, 400 ng
TALEN 103068 (synthetic) = details: pair with 103067; K562, 400 ng
TALEN 103049 (synthetic) = details: pair with 103050; K562, 400 ng
TALEN 103072 (synthetic) = details: pair with 103071; K562, 400 ng
TALEN 103056 (synthetic) = details: pair with 103055; K562, 400 ng
TALEN 103061 (synthetic) = details: pair with 103062; K562, 400 ng
TALEN 103092 (synthetic) = details: pair with 103091; K562, 400 ng
TALEN 103051 (synthetic) = details: pair with 103052; K562, 400 ng
TALEN 103094 (synthetic) = details: pair with 103093; K562, 400 ng
TALEN 103053 (synthetic) = details: pair with 103054; K562, 400 ng
TALEN 103096 (synthetic) = details: pair with 103095; K562, 400 ng
TALEN 103103 (synthetic) = details: pair with 103104; K562, 400 ng
TALEN 103081 (synthetic) = details: pair with 103082; K562, 400 ng

## GTGAGTAAACCTGAATCTTTG (double strand) [TALEN 103062 site]
TALEN 103062 (synthetic)
  activity: 22.9 % indel

## ATTCAGTGTAGTACAAGAGAT (double strand) [TALEN 103098 site]
TALEN 103098 (synthetic)
  activity: 52 % indel

## TTCTCTCTCCATTCTTCAGTA (double strand) [TALEN 103084 site]
TALEN 103084 (synthetic)
  activity: 32.2 % indel

## GTTGACTTACTGAAGAATGGA (double strand) [TALEN 103091 site]
TALEN 103091 (synthetic)
  activity: 48.5 % indel

## ATACTCATCTTTTTCAGTGGG (double strand) [TALEN 103104 site]
TALEN 103104 (synthetic)
  activity: 44.9 % indel

## CTCACGCTGGATAGCCTCCAG (double strand) [TALEN 103058 site]
TALEN 103058 (synthetic)
  activity: 46.2 % indel

## ATAGCAATTCAGGAAATTTGA (double strand) [TALEN 103074 site]
TALEN 103074 (synthetic)
  activity: 3 % indel

## CTCCTGAAAGTGGCCGGGTTTAATCTGC (double strand) [TCRA 55254 site]
[1]
  activity: 66 % indel

## GTAGCGCGAGCACAGCTAAGG (double strand) [TALEN 103050 site]
TALEN 103050 (synthetic)
  activity: 19.5 % indel

## ATGACGTGAGTAAACCTGAAT (double strand) [TALEN 103064 site]
TALEN 103064 (synthetic)
  activity: 14.8 % indel

## CTTTTTCAATTCTCTCTCCAT (double strand) [TALEN 103088 site]
TALEN 103088 (synthetic)
  activity: 10.5 % indel

## TTCAGACTTGTCTTTCAGCAA (double strand) [TALEN 103095 site]
TALEN 103095 (synthetic)
  activity: 42 % indel

## CTATGTGTCTGGGTTTCATCC (double strand) [TALEN 103077 site]
TALEN 103077 (synthetic)
  activity: 17.1 % indel

## ATGGAGAGAGAATTGAAAAAG (double strand) [TALEN 103093 site]
TALEN 103093 (synthetic)
  activity: 20.2 % indel

## CTCCAAAGATTCAGGTTTACT (double strand) [TALEN 103071 site]
TALEN 103071 (synthetic)
  activity: 13.3 % indel

## TTTCATCCATCCGACATTGAA (double strand) [TALEN 103083 site]
TALEN 103083 (synthetic)
  activity: 32.2 % indel

## TTGAAGTTGACTTACTGAAGA (double strand) [TALEN 103089 site]
TALEN 103089 (synthetic)
  activity: 16.1 % indel

## ATGTGTCTGGGTTTCATCCAT (double strand) [TALEN 103079 site]
TALEN 103079 (synthetic)
  activity: 42.3 % indel

## TTCCTGAATTGCTATGTGTCT (double strand) [TALEN 103075 site]
TALEN 103075 (synthetic)
  activity: 1.5 % indel

## TTTCCATTCTCTGCTGGATGA (double strand) [TALEN 103070 site]
TALEN 103070 (synthetic)
  activity: 27.9 % indel

## ATAGCCTCCAGGCCAGAAAGA (double strand) [TALEN 103054 site]
TALEN 103054 (synthetic)
  activity: 32.4 % indel

## CTGGTCTTTCTATCTCTTGTA (double strand) [TALEN 103101 site]
TALEN 103101 (synthetic)
  activity: 15.5 % indel

## CTGTGCTCGCGCTACTCTCTC (double strand) [TALEN 103057 site]
TALEN 103057 (synthetic)
  activity: 46.2 % indel

## ATCCGACATTGAAGTTGACTT (double strand) [TALEN 103087 site]
TALEN 103087 (synthetic)
  activity: 10.5 % indel

## CTCCAGGCCAGAAAGAGAGAG (double strand) [TALEN 103052 site]
TALEN 103052 (synthetic)
  activity: 63.8 % indel

## GTACTCCAAAGATTCAGGTTT (double strand) [TALEN 103069 site]
TALEN 103069 (synthetic)
  activity: 27.9 % indel

## CTTAGCTGTGCTCGCGCTACT (double strand) [TALEN 103055 site]
TALEN 103055 (synthetic)
  activity: 25.1 % indel

## TTCCTCAGGTACTCCAAAGAT (double strand) [TALEN 103065 site]
TALEN 103065 (synthetic)
  activity: 41.2 % indel

## CTCTGCTGGATGACGTGAGTA (double strand) [TALEN 103066 site]
TALEN 103066 (synthetic)
  activity: 41.2 % indel

## CTCAGGTACTCCAAAGATTCA (double strand) [TALEN 103067 site]
TALEN 103067 (synthetic)
  activity: 49.3 % indel

## ATCCATCCGACATTGAAGTTG (double strand) [TALEN 103085 site]
TALEN 103085 (synthetic)
  activity: 3.9 % indel

## TTCAATTCTCTCTCCATTCTT (double strand) [TALEN 103086 site]
TALEN 103086 (synthetic)
  activity: 3.9 % indel

## TTTTTCAGTGGGGGTGAATTC (double strand) [TALEN 103102 site]
TALEN 103102 (synthetic)
  activity: 15.5 % indel

## CTTGTCTTTCAGCAAGGACTG (double strand) [TALEN 103097 site]
TALEN 103097 (synthetic)
  activity: 52 % indel

## CTACACTGAATTCACCCCCAC (double strand) [TALEN 103105 site]
TALEN 103105 (synthetic)
  activity: 14.2 % indel

## GTCAACTTCAATGTCGGATGG (double strand) [TALEN 103076 site]
TALEN 103076 (synthetic)
  activity: 1.5 % indel

## CTCCATTCTTCAGTAAGTCAA (double strand) [TALEN 103082 site]
TALEN 103082 (synthetic)
  activity: 27.5 % indel

## CTCACGTCATCCAGCAGAGAA (double strand) [TALEN 103073 site]
TALEN 103073 (synthetic)
  activity: 3 % indel

## TTTTCCCGATATTCCTCAGGT (double strand) [TALEN 103063 site]
TALEN 103063 (synthetic)
  activity: 14.8 % indel

## ATGCTCCACTTTTTCAATTCT (double strand) [TALEN 103090 site]
TALEN 103090 (synthetic)
  activity: 16.1 % indel

## GTGAATTCAGTGTAGTACAAG (double strand) [TALEN 103100 site]
TALEN 103100 (synthetic)
  activity: 15.3 % indel

## CTTTCAGCAAGGACTGGTCTT (double strand) [TALEN 103099 site]
TALEN 103099 (synthetic)
  activity: 15.3 % indel

## ATTCTCTGCTGGATGACGTGA (double strand) [TALEN 103068 site]
TALEN 103068 (synthetic)
  activity: 49.3 % indel

## ATTCGGGCCGAGATGTCTCGC (double strand) [TALEN 103049 site]
TALEN 103049 (synthetic)
  activity: 19.5 % indel

## TTGACTTTCCATTCTCTGCTG (double strand) [TALEN 103072 site]
TALEN 103072 (synthetic)
  activity: 13.3 % indel

## CTGGATAGCCTCCAGGCCAGA (double strand) [TALEN 103056 site]
TALEN 103056 (synthetic)
  activity: 25.1 % indel

## GTGTCTTTTCCCGATATTCCT (double strand) [TALEN 103061 site]
TALEN 103061 (synthetic)
  activity: 22.9 % indel

## GTCTGAATGCTCCACTTTTTC (double strand) [TALEN 103092 site]
TALEN 103092 (synthetic)
  activity: 48.5 % indel

## CTCCGTGGCCTTAGCTGTGCT (double strand) [TALEN 103051 site]
TALEN 103051 (synthetic)
  activity: 63.8 % indel

## CTTGCTGAAAGACAAGTCTGA (double strand) [TALEN 103094 site]
TALEN 103094 (synthetic)
  activity: 20.2 % indel

## GTGGCCTTAGCTGTGCTCGCG (double strand) [TALEN 103053 site]
TALEN 103053 (synthetic)
  activity: 32.4 % indel

## GTGTAGTACAAGAGATAGAAA (double strand) [TALEN 103096 site]
TALEN 103096 (synthetic)
  activity: 42 % indel

## CTATCTCTTGTACTACACTGA (double strand) [TALEN 103103 site]
TALEN 103103 (synthetic)
  activity: 44.9 % indel

## GTCTGGGTTTCATCCATCCGA (double strand) [TALEN 103081 site]
TALEN 103081 (synthetic)
  activity: 27.5 % indel
